Experimental data from paper PMC11010949 (Protein Science : A Publication of the Protein Society, 2024).

Legend:
[1] = molecular target: VPS29 (as expressed for the complexes, pMR101A‐VPS29) (UniProt Q9UBQ0); experiment: crystal structure
VPS29–VPS35C subcomplex = VPS29–VPS35C subcomplex (UniProt Q96QK1;Q9UBQ0); experiment: crystal structure

binding result [1]: binds
binding result (VPS29–VPS35C subcomplex): binds
B1: peptide FAM21‐R21 (1328-SNIFDDPLNAFGGQ-1341) (peptide)
peptide: SNIFDDPLNAFGGQ
